Columns and labels:
[1] = Gelation time of HA-EGCG hydrogels (vial tilting); type: physicochemical; settings: pH 7.4, no exogenous H2O2, HA-EGCG 17.5 mg/ml
Method: Preparation of HA-EGCG solution: For all experiments described below, HA-EGCG stock solution was prepared by dissolving the conjugates in distilled water at 25 mg/ml at room temperature using a magnetic stirrer. Dissolution took about 25 min and the pH of the solution was 2.5. Then the pH was brought to 6 using 2 M NaOH before diluting with sodium phosphate buffer (final ionic strength: 0.15 M) to the desired concentration and pH, depending on the gelation condition.
Formation of HA-EGCG hydrogels through air autoxidation: To form HA-EGCG hydrogel by air autoxidation, HA-EGCG solution was diluted to 17.5 mg/ml by adding sodium phosphate buffer with pH between 6.0 to 8. To determine the gelation time, glass vials containing 0.25 ml of HA-EGCG were tilted frequently at 90 degrees for 5 sec, the time at which no obvious flowing motion could be observed was recorded as the gelation time.
Acceleration of HA-EGCG hydrogel formation through air autoxidation by adding catalase: Stock solution of catalase was prepared by dissolving the enzyme in distilled water at 22.5 kU/ml. […] The gelation time was determined as described above.
Formation of HA-EGCG hydrogel by HRP-mediated crosslinking reaction: HRP stock solution was prepared in water at 6.25 U/ml. […] The gelation time was determined as described above.

[2] = H2O2 production by HA-EGCG (PeroXOquant peroxide assay); type: physicochemical; settings: HA-EGCG 10 mg/ml; pH 7.4; over 35 min; increased with time
Method: Measurement of H2O2 Production by HA-EGCG: The amount of H2O2 produced by HA-EGCG was determined using the PeroXOquant Quantitative Peroxide Assay Kits from Pierce. In order to determine the amount of H2O2 produced during the dissolution process, a sample of the dissolved conjugates was diluted 20-fold with distilled water, 20 μl of which was added to the well of a 96-wellplate follow by the addition of 200 μl working reagent prepared according to manufacturer's protocol. The HA-EGCG solution was then diluted to 10 mg/ml with phosphate buffer. The final ionic strength of the mixture was 0.15 M and pH was 7.4. For the next 35 min, 20 μl of the HA-EGCG solution was drawn out every 5 min and diluted 10-fold with distilled water. 20 μl of the diluted sample was then added to a well of a 96-wellplate followed by 200 μl of working reagents. After the last sample was collected and the working reagent added, the plate was incubated for another 1 h before reading the absorbance at 595 nm. The amount of H2O2 produced by HA-EGCG was determined by comparing to a set of H2O2 standards.

Substance: hyaluronic acid-epigallocatechin gallate [HA-EGCG]
- gelation time ([1]; HRP 0 unit/ml): 50 min
- gelation time ([1]; HRP 0.125 unit/ml): 9 min
- amount of H2O2 generated during air-autoxidation [2]: micromolar range
